Holding throughout (assay): cell-based or functional assay
The target of assay [1] is T1, type I interferon-α/β receptor (IFNAR), composed of the IFNAR1 and IFNAR2 subunits (human) (UniProt P17181).
T1 sequence (looked up) 1: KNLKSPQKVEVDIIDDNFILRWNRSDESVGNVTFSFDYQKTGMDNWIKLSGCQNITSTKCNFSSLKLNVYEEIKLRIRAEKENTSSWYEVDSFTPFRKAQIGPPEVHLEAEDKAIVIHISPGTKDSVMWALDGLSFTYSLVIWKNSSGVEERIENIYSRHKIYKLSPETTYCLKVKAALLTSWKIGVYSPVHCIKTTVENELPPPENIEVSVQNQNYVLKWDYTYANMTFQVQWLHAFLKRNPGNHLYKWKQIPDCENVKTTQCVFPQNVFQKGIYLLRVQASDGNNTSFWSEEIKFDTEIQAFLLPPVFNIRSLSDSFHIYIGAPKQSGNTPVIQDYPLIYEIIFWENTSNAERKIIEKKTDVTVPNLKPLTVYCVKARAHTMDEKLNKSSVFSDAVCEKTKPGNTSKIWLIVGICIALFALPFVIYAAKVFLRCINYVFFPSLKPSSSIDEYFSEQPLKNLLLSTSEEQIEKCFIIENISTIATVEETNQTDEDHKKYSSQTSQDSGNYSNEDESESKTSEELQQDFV
T1 sequence (looked up) 2: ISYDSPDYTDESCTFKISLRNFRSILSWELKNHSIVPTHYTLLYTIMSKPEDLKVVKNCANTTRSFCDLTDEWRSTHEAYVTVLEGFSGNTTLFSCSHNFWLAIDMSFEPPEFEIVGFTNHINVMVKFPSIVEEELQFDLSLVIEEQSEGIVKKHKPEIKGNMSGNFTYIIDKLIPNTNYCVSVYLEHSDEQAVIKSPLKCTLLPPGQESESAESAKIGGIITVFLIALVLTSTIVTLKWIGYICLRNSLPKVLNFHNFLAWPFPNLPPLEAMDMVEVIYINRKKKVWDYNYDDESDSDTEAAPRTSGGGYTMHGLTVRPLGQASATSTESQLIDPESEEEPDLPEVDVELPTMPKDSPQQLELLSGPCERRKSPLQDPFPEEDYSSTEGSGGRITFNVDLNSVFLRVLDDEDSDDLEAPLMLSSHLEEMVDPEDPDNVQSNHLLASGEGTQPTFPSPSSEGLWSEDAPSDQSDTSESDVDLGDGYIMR

In assay [2] the target is T1, type I interferon-α/β receptor (IFNAR), composed of the IFNAR1 and IFNAR2 subunits (human). This is another data set of the same source.
Assay [3] has as its target T2, type I interferon-α/β receptor (IFNAR), composed of the IFNAR1 and IFNAR2 subunits (human, UniProt P17181 28-557; P48551 27-515).
T2 sequence (looked up) 1: T1 sequence (looked up) 1
T2 sequence (looked up) 2: T1 sequence (looked up) 2

Where two headings read alike, the source gives them in different places.

For the molecule “wild type IFNα2a (Example 7) (from UniProt P01563 24-188) (ligand)”, in assay [1], the EC50 6-16 reporter activity, HL116 amounted to 0.008 nM and the EC50 6-16 reporter activity, HL116-CLEC9A is 0.006 nM.

B1: wild type interferon alpha 1 (IFNα1) (ligand)
chain: CDLPETHSLDNRRTLMLLAQMSRISPSSCLMDRHDFGFPQEEFDGNQFQKAPAISVLHELIQQIFNLFTTKDSSAAWDEDLLDKFCTELYQQLNDLEACVMQEERVGETPLMNADSILAVKKYFRRITLYLTEKKYSPCAWEVVRAEIMRSLSLSTNLQERLRRKE
In assay [2], B1 returned an EC50 6-16 reporter activity, HL116 of 0.105 nM; an EC50 6-16 reporter activity, HL116 (Exp 1) of 2.38 ng/mL; an EC50 6-16 reporter activity, HL116-CLEC9A of 0.084 nM; an EC50 6-16 reporter activity, HL116-huCD20 (Exp 1) of 3.25 ng/mL. Also, in assay [2], the EC50 of luciferase (6-16 reporter) induction in HL116-CLEC9A cells is 1.6 ng/mL; the EC50 of luciferase (6-16 reporter) induction in parental HL116 cells came out at 2 ng/mL; the EC50 pSTAT1 in PBMC's, CD20 negative (Exp 1) was determined as 7.51 ng/ml; the EC50 pSTAT1 in PBMC's, CD20 negative (Exp 2) was found to be 6.77 ng/ml. Further, in assay [2], the EC50 pSTAT1 in PBMC's, CD20 positive (Exp 1) was determined as 3.97 ng/ml; the EC50 pSTAT1 in PBMC's, CD20 positive (Exp 2) is 2.72 ng/ml; the fold decrease in potency in 6-16 reporter induction relative to IFNα2 fell in the range of 10 to 15 fold; the ratio CD20 neg/pos of EC50 6-16 reporter activity (Exp 1) worked out at 0.7. Also, in assay [2], the ratio CD20 neg/pos of EC50 pSTAT1 in PBMC's (Exp 1) is 2; the ratio CD20 neg/pos of EC50 pSTAT1 in PBMC's (Exp 2) was determined as 2.5; the ratio of EC50 6-16 reporter activity, HL116 / HL116-CLEC9A stood at 1.2.

B2: CD20 VHH-(GGS)20-hIFNα1-His6 (other)
chain: QVQLQESGGGLAQAGGSLRLSCAASGRTFSMGWFRQAPGKEREFVAAITYSGGSPYYASSVRGRFTISRDNAKNTVYLQMNSLKPEDTAVYYCAANPTYGSDWNAENWGQGTQVTVSSVDGGSGGSGGSGGSGGSGGSRSGGSGGSGGSGGSGGSGGSGGSGGSGGSGGSGGSGGSGGSAAACDLPETHSLDNRRTLMLLAQMSRISPSSCLMDRHDFGFPQEEFDGNQFQKAPAISVLHELIQQIFNLFTTKDSSAAWDEDLLDKFCTELYQQLNDLEACVMQEERVGETPLMNADSILAVKKYFRRITLYLTEKKYSPCAWEVVRAEIMRSLSLSTNLQERLRRKELEHHHHHH
Regarding B2, in assay [3], the “EC50 6-16 reporter activity, HL116-huCD20 (Exp 1)” value stood at 0.0241 ng/mL; the “EC50 pSTAT1 in PBMC's, CD20 positive (Exp 1)” value was determined as 0.114 ng/ml; the “EC50 pSTAT1 in PBMC's, CD20 positive (Exp 2)” value worked out at 0.085 ng/ml.

Values taken from patent US20200308244A1 (ORIONIS BIOSCIENCES, published 2020).
